From PMC6191436

Target: FLAG-cyclin B1 (UniProt P14635)
Test: co-IP; MCF7 cells transfected with Myc-BRCA1-Δ11 and FLAG-cyclin B1, synchronised (aphidicolin 0.3 μM 24 h, release 8 h, nocodazole 100 ng/mL 24 h, release 2 h), without or with irradiation (10 Gy); anti-FLAG antibody-conjugated agarose; Western blot with anti-Myc

Myc-BRCA1-Δ11, sequence (P38398 whole entry, stated change not applied): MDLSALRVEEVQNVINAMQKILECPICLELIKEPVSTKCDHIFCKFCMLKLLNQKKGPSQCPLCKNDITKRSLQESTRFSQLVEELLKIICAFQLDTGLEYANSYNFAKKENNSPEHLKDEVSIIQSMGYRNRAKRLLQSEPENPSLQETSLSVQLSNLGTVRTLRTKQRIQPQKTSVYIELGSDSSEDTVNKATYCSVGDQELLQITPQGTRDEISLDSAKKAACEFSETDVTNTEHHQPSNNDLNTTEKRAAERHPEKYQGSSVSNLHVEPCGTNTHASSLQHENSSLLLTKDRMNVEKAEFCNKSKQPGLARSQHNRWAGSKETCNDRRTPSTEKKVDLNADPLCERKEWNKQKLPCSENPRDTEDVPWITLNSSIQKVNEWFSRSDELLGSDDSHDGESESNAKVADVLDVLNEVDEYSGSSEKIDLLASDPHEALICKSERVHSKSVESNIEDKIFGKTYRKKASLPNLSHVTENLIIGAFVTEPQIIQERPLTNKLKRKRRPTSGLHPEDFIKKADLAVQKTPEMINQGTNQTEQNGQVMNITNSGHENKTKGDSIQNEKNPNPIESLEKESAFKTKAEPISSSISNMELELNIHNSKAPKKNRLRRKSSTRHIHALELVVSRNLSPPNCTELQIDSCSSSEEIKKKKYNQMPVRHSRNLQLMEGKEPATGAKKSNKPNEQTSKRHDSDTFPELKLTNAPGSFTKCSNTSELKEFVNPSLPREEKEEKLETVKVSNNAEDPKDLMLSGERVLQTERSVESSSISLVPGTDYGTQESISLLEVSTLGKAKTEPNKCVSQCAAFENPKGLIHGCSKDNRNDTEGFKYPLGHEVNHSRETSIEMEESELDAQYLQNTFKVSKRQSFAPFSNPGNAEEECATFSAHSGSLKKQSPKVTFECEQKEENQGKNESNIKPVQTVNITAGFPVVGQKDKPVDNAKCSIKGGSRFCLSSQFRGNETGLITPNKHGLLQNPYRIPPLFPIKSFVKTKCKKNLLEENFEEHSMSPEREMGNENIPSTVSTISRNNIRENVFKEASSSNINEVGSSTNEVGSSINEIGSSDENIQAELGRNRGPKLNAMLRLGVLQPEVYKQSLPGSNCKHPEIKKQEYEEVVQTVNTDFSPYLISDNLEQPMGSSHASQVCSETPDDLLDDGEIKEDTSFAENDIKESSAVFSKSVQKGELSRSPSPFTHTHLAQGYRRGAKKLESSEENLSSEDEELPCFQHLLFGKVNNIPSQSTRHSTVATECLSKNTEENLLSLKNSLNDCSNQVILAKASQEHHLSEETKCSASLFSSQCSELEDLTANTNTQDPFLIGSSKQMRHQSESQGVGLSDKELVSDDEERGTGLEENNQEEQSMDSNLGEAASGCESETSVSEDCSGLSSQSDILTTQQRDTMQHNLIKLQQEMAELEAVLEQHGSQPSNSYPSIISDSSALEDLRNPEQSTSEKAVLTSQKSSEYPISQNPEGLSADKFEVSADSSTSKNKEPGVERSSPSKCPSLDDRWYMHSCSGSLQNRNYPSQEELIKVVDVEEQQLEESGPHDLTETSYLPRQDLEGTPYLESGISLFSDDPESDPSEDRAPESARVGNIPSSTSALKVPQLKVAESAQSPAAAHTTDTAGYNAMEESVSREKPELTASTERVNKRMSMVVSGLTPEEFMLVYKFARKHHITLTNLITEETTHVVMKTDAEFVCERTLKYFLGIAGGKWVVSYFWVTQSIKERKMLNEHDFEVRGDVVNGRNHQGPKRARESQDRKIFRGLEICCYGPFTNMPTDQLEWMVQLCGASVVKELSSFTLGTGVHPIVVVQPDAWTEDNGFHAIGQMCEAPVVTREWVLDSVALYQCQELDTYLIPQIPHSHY
FLAG-cyclin B1, sequence (P14635 whole entry): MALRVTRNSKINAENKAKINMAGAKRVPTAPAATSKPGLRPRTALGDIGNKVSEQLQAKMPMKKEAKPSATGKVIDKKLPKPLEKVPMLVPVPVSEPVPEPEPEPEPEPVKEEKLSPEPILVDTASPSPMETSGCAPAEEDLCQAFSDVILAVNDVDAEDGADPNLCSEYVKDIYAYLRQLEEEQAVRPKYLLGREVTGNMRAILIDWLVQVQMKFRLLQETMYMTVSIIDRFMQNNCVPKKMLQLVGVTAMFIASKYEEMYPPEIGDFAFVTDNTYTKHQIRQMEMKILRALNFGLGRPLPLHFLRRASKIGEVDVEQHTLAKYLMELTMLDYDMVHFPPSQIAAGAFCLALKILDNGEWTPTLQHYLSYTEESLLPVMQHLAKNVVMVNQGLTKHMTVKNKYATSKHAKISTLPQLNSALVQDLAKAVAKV

interaction upon irradiation relative to no irradiation (nocodazole-treated cells): 214%
Substance: Myc-BRCA1-Δ11 (from UniProt P38398-5 1-721) (natural protein)
